This passage reports Kd results from publication PMC10786891, “Massively parallel profiling of RNA-targeting CRISPR-Cas13d”.

B1: target 1 U3A,G13A (mixed)
RNA 1: CACCCGUGCAAAAAUGCAGGGGUCUAAAACUGAGCGGAUAACCUCUCUAUGG
RNA 2: GGGAAUGGAUCCACAUCUACGAAUUCGUACCAUAGAGAAGUUAUCCGCACACCGAGAUCGGAAGAGCACACGU
B2: target 2 MT 5'PFS CGA 3'PFS ACA (mixed)
RNA 1: CACCCGUGCAAAAUUGCAGGGGUCUAAAACCUUCUCCAAAUUGUUUCAUCCU
RNA 2: GGGAAUGGAUCCACAUCUACGAAUUCCGAAGGAUGAAACAAUUUGGAGAAGACAAGAUCGGAAGAGCACACGU
B3: target 2 MT 5'PFS CGA 3'PFS ACC (mixed)
RNA 1: CACCCGUGCAAAAUUGCAGGGGUCUAAAACCUUCUCCAAAUUGUUUCAUCCU
RNA 2: GGGAAUGGAUCCACAUCUACGAAUUCCGAAGGAUGAAACAAUUUGGAGAAGACCAGAUCGGAAGAGCACACGU
B4: target 2 MT 5'PFS UGU 3'PFS AAC (mixed)
RNA 1: CACCCGUGCAAAAUUGCAGGGGUCUAAAACCUUCUCCAAAUUGUUUCAUCCU
RNA 2: GGGAAUGGAUCCACAUCUACGAAUUCUGUAGGAUGAAACAAUUUGGAGAAGAACAGAUCGGAAGAGCACACGU
B5: target 2 MT 5'PFS GUC 3'PFS ACC (mixed)
RNA 1: CACCCGUGCAAAAUUGCAGGGGUCUAAAACCUUCUCCAAAUUGUUUCAUCCU
RNA 2: GGGAAUGGAUCCACAUCUACGAAUUCGUCAGGAUGAAACAAUUUGGAGAAGACCAGAUCGGAAGAGCACACGU
B6: target 2 MT 5'PFS AUA 3'PFS AAC (mixed)
RNA 1: CACCCGUGCAAAAUUGCAGGGGUCUAAAACCUUCUCCAAAUUGUUUCAUCCU
RNA 2: GGGAAUGGAUCCACAUCUACGAAUUCAUAAGGAUGAAACAAUUUGGAGAAGAACAGAUCGGAAGAGCACACGU
B7: target 2 MT 5'PFS UUG 3'PFS CUU (mixed)
RNA 1: CACCCGUGCAAAAUUGCAGGGGUCUAAAACCUUCUCCAAAUUGUUUCAUCCU
RNA 2: GGGAAUGGAUCCACAUCUACGAAUUCUUGAGGAUGAAACAAUUUGGAGAAGCUUAGAUCGGAAGAGCACACGU
B8: target 2 MT 5'PFS GUC 3'PFS ACA (mixed)
RNA 1: CACCCGUGCAAAAUUGCAGGGGUCUAAAACCUUCUCCAAAUUGUUUCAUCCU
RNA 2: GGGAAUGGAUCCACAUCUACGAAUUCGUCAGGAUGAAACAAUUUGGAGAAGACAAGAUCGGAAGAGCACACGU
B9: target 2 MT 5'PFS UUU 3'PFS CUU (mixed)
RNA 1: CACCCGUGCAAAAUUGCAGGGGUCUAAAACCUUCUCCAAAUUGUUUCAUCCU
RNA 2: GGGAAUGGAUCCACAUCUACGAAUUCUUUAGGAUGAAACAAUUUGGAGAAGCUUAGAUCGGAAGAGCACACGU
B10: target 2 MT 5'PFS AUA 3'PFS AAA (mixed)
RNA 1: CACCCGUGCAAAAUUGCAGGGGUCUAAAACCUUCUCCAAAUUGUUUCAUCCU
RNA 2: GGGAAUGGAUCCACAUCUACGAAUUCAUAAGGAUGAAACAAUUUGGAGAAGAAAAGAUCGGAAGAGCACACGU
B11: target 2 MT 5'PFS AUA 3'PFS AAU (mixed)
RNA 1: CACCCGUGCAAAAUUGCAGGGGUCUAAAACCUUCUCCAAAUUGUUUCAUCCU
RNA 2: GGGAAUGGAUCCACAUCUACGAAUUCAUAAGGAUGAAACAAUUUGGAGAAGAAUAGAUCGGAAGAGCACACGU
B12: target 2 MT 5'PFS UUG 3'PFS AUU (mixed)
RNA 1: CACCCGUGCAAAAUUGCAGGGGUCUAAAACCUUCUCCAAAUUGUUUCAUCCU
RNA 2: GGGAAUGGAUCCACAUCUACGAAUUCUUGAGGAUGAAACAAUUUGGAGAAGAUUAGAUCGGAAGAGCACACGU
B13: target 2 MT 5'PFS AUA 3'PFS AAG (mixed)
RNA 1: CACCCGUGCAAAAUUGCAGGGGUCUAAAACCUUCUCCAAAUUGUUUCAUCCU
RNA 2: GGGAAUGGAUCCACAUCUACGAAUUCAUAAGGAUGAAACAAUUUGGAGAAGAAGAGAUCGGAAGAGCACACGU

In this data set the target is T1, EsCas13d, nuclease-dead (Eubacterium siraeum, UniProt B0MS50, R295A;H300A;R849A;H854A).
T1 sequence: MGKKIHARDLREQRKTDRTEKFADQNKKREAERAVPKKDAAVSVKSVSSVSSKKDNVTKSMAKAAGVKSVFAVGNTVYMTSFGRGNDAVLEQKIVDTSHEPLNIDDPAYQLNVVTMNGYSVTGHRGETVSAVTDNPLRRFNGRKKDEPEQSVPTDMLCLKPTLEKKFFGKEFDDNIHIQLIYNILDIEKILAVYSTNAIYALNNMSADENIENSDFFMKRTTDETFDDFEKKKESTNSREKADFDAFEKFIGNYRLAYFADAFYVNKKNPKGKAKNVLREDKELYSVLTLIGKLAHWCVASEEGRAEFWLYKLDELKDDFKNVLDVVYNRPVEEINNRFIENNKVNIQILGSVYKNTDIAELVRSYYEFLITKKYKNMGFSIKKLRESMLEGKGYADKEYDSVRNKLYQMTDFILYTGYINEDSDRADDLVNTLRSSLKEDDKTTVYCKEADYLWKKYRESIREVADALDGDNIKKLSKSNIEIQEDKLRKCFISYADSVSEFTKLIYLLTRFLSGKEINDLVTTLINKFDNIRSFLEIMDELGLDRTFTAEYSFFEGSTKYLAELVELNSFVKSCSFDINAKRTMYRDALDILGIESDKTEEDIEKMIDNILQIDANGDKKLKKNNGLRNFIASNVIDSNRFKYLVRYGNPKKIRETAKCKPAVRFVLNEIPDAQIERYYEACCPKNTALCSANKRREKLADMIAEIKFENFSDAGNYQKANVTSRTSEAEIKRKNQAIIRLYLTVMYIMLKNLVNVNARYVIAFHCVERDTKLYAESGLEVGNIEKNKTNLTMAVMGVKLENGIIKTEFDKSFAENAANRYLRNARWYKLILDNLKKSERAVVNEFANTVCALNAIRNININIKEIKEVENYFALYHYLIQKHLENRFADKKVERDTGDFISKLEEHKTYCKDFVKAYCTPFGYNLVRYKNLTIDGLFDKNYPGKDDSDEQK
Kind of data set: crRNA (strand 1, pre-loaded); Mg2+; 40 mM Tris-HCl pH 7.5, 150 mM NaCl, 6 mM MgCl2, 1 mM DTT, 0.1% Tween-20, 0.2 mg/ml BSA; 25 C; 10 min per concentration, then washed. The following applies: tags: His6-TwinStrep-SUMO cleaved; N-terminal SNAP kept (SNAP-Surface 488); label: 3' end held by stalled T7 RNA polymerase.
For the molecule B1, the Kd was 7.7 ± 0.5 nM.

For B2, the Kd was 10.8 ± 2.6 nM.

On to B3, for which the dissociation constant Kd was around 38 nM.

Regarding B4, binding was put at a Kd of 24 ± 7 nM.

In turn, B5 displayed a Kd of 28 ± 6 nM.

Take B6: the affinity, expressed as Kd, was 5.2 ± 0.9 nM.

Regarding B7, the Kd came out at 15.9 ± 2.1 nM.

B8 came in with a Kd of 18.5 ± 2.7 nM.

Turning to B9, binding was put at a Kd of 8.9 ± 0.8 nM.

With B10, the Kd turned out to be 5 ± 0.8 nM. This Kd lies about 1.8-fold lower than the previous one.

As for B11, the equilibrium dissociation constant (Kd) worked out at 8.6 ± 1.4 nM.

Regarding B12, the Kd was 11.9 ± 1 nM.

With B13, binding was put at a Kd of 5.9 ± 1.4 nM.
